Article PMC9755681, “Next-generation sequencing of a combinatorial peptide phage library screened against ubiquitin identifies peptide aptamers that can inhibit the in vitro ubiquitin transfer cascade” (Frontiers in Microbiology, 2022)
No end group written: not given here. *: point of attachment. Biotin = O=C1N[C@H]2[C@H](CS[C@H]2CCCCC(=O)*)N1

B1: Non-tagged Peptide-37 (FIPAQLHFHWRS), non-biotinylated with a C-terminal NH2 (peptide)
peptide: FIPAQLHFHWRS-NH2
notes: phage-selected 12-mer; source: synthetic peptide
B2: Non-tagged peptide-12 (AKFDMHIATRLS), non-biotinylated with a C-terminal NH2 (peptide)
peptide: AKFDMHIATRLS-NH2
notes: as for B1
B3: peptide-37 (Biotin-SGSG-FIPAQLHFHWRS-amide) (peptide)
peptide: Biotin-SGSGFIPAQLHFHWRS-NH2
SMILES: CC[C@H](C)[C@H](NC(=O)[C@H](Cc1ccccc1)NC(=O)CNC(=O)[C@H](CO)NC(=O)CNC(=O)[C@H](CO)NC(=O)CCCC[C@@H]1SC[C@@H]2NC(=O)N[C@@H]21)C(=O)N1CCC[C@H]1C(=O)N[C@@H](C)C(=O)N[C@@H](CCC(N)=O)C(=O)N[C@@H](CC(C)C)C(=O)N[C@@H](Cc1c[nH]cn1)C(=O)N[C@@H](Cc1ccccc1)C(=O)N[C@@H](Cc1c[nH]cn1)C(=O)N[C@@H](Cc1c[nH]c2ccccc12)C(=O)N[C@@H](CCCNC(=N)N)C(=O)N[C@@H](CO)C(N)=O
notes: spacer; phage-selected 12-mer; also called synthetic peptide 37; source: synthetic peptide (Chiron Mimotopes, Australia)
B4: peptide-12 (Biotin-SGSG-AKFDMHIATRLS-amide) (peptide)
peptide: Biotin-SGSGAKFDMHIATRLS-NH2
SMILES: CC[C@H](C)[C@H](NC(=O)[C@H](Cc1c[nH]cn1)NC(=O)[C@H](CCSC)NC(=O)[C@H](CC(=O)O)NC(=O)[C@H](Cc1ccccc1)NC(=O)[C@H](CCCCN)NC(=O)[C@H](C)NC(=O)CNC(=O)[C@H](CO)NC(=O)CNC(=O)[C@H](CO)NC(=O)CCCC[C@@H]1SC[C@@H]2NC(=O)N[C@@H]21)C(=O)N[C@@H](C)C(=O)N[C@H](C(=O)N[C@@H](CCCNC(=N)N)C(=O)N[C@@H](CC(C)C)C(=O)N[C@@H](CO)C(N)=O)[C@@H](C)O
notes: spacer; phage-selected 12-mer; also called synthetic peptide 12; source: synthetic peptide (Chiron Mimotopes, Australia)

Tests used:
[1] = target: T1, uniformly labeled 15N-human ubiquitin (human, UniProt P0CG48 1-76, uniformly 15N-labeled); experiment: NMR titration; 1H-15N HSQC and 15N relaxation of 0.5 mM 15N-ubiquitin, 10 mM sodium phosphate pH 5.0, 298 K, without and with peptide (0.64 mg peptide 12 or 0.7 mg peptide 37 in 0.55 ml); conditions: both partners purified
T1 construct: ubiquitin, human; the 76-residue ubiquitin unit cut from its precursor; also called N15-labeled Ubiquitin; source: bought: Asla Biotech (Latvia)

[2] = target: T2, Ubiquitin (ubiquitination reactions, HDX-MS and reverse-phase HPLC) (human, UniProt P0CG48 1-76); experiment: HDX-MS; global deuteration of intact ubiquitin, 2 uM, ubiquitin to peptide 1:2 and 1:5, room temperature, 1 min in deuterated water with 0.1% DMSO; conditions: both partners purified
T2 construct: ubiquitin, human; the 76-residue ubiquitin unit cut from its precursor; That the HDX/HPLC ubiquitin is the Boston Biochem one is surmised; also called ubiquitin protein; native ubiquitin; source: bought: Boston Biochem (ubiquitination reactions)

Binder | binding result [1] | binding result [2]
B1 | binds | –
B2 | binds | –
B3 | – | binds
B4 | – | binds
